Measurements taken from the DeepSol protein solubility set.

Test: soluble on expression in E. coli; label from the status in PepcDB or PDB records

Row | Sequence | soluble on expression in E. coli
1 | MIRGLRQIEPYVAGVQPAERKMIKLNTNENAYGASPKVREALANFDVDNLRKYSTLEQADLRAALANNLKVKPEQLMIANGSDDVLSIAFLAFFNNDEPVLFPDLTYGFYKVWADLYRVNYHEIPLAEDFTINTEDYLADNGGIILTNPNAPTGIYKPLNEIEKLLKANQDTVVIIDEAYISFGGQSALSLLNKYNNLVITRTFSKDAALAGLRVGYAIANEPLIAVMNAVKHSINPYSVDLLAERLATAAVEDWSYYQENAKKIQKTRAWFSEQLVKQGFDVLPSQANFVLTKPHDLATAKLFEELEARKIYVRYFPKVERIKDYLRISMGTQEEMEEVVKAIEEIRG | soluble
2 | MYYIASADSQQSQQGRSQAEAPEFLTEKCPFVGLKSTLEQVGTPR | not soluble
3 | MKIGFIGAGSMGGAMIKGLLKAEAVKKEHLYVKGGSSGTAEALQKEWGFQLVTDYALFQECKVIFIATGAKVVLPVLQELAPHFSNESLLISVATGHTIQEAQMALGNKEAKVVHAIPNTPVSVNQGVIGVALAPTIEGQTKDLAMELLATLGLVKEIREAQLETFGTVAGCSPAFVDIFMEALGDAAVLEGLPRDLSYEIVAQMIKGTATLALDTKKHPGALKDEVTSPGGSTIRGVVALEKNGFRYAVMDAVQQANHE | soluble
4 | MKMELLLIIITQDAYIGQRFTKRSSYLCGIYDKTANTMKEPFQIPTSKDIENLIGTDLYDVWNSLCQRIEKSYEMELLWNRGGKAWTYEYKYRKGGKTLCALYAKEKTLGFMVILGKDERAKFEIQRGQFSNEVQMIYDAATTFHDGKWIMFELKDTKLFNDMERLLLIKRKPNRKAE | soluble
5 | MNMPLMIDLTNKNVVIVGGGVVASRRAQTLNQYVEHMTVISPTITEKLQNMVDNGVVIWKEKEFEPSDIVDAYLVIAATNEPRVNEAVKKALPEHALFNNVGDASNGNVVFPSALHRDKLTISVSTDGASPKLTKSIMAELEALYPPSYSSYIDFLYTCRQKIKVLDITYNEKQQLLSQIVSQEYLNHDKQAQFLAWLDVR | not soluble
6 | MGSDKIHHHHHHMEQAATQRLATGIPGLDEICGGGLVPRYAYLVRGGPGTGKTTLGLHFLAAGAANGETTLFISLEETESKIRWNAAQTGINLNQVHILDLSPSSDFFANTQIYDIFSPAEVEREPITRQIVETVQRLQPTRVFLDSITQFRYLTPDTFQFRKQVISFLRFLAEQRTTVVFSAENSAAFPDDDLQYIADGIISLELTNTGRYLTVSKMRGSSFVSGRHAMRLTTQGLQVFPRIIPTPLVAGHAFTLIPSGVPELDELLNGGVERGTITLITGPSGVGKTTLGFQFMKEAASRGERSMVFSFEEEIEIMQQRCEAVNIPVRAMQKQQLLRIEKIEPLQYNPAEFAQHVRYFIEQEQIKVVMIDSVTGYRLCMHGEDLISQLHALSKYLQSRGVTVFLIMDTTDIVGDFKVTEIGASYLGDNIIFLRFLEIEGELRKAIGVLKKRLGDFEKTLREFAISRYGIKVGKPLTNLRGILSGMPTWVDKA | not soluble
7 | GMPTFNPELHAQTLNSERAYFVQPDADPAFTPHIGALVEMLTYARLTTLQAVEGLPEDQLWATAPGFANSIGTLLAHIAAVERVYHVLSFQGRDVTPEDDGAAYWGLTMGKEGTAPARLPTLDELRAELADARAETLRVFAAKDDAWLAEPLGPGWANQHWAWFHVMEDEVNHRGQLRLLRQVLAPEEGG | soluble
8 | GSHSMRYFYTAVSRPGRGEPHFIAVGYVDDTQFVRFDSDAASPRGEPRAPWVEQEGPEYWDRETQKYKRQAQTDRVSLRNLRGYYNQSEAGSHIIQRMYGCDVGPDGRLLRGYDQYAYDGKDYIALNEDLRSWTAADTAAQITQRKWEAAREAEQLRAYLEGLCVEWLRRYLKNGKETLQRAEHPKTHVTHHPVSDHEATLRCWALGFYPAEITLTWQWDGEDQTQDTELVETRPAGDGTFQKWAAVVVPSGEEQRYTCHVQHEGLPEPLTLRWEPSS | soluble
9 | SQNNEIIKPAKYFSELEKSILLALVEKYKYVLECKKSDARTIALKQRTWQALAHEYNSQPSVSLRDFKQLKKCWENIKARTKKIMAHERREKVKRSVSPLLSTHVLGKEKIASMLPEQLYFLQSPPEEEPEYHPDASAQESFAVSNRELCDDEKEFIHFPVCEGTSQPEPSCSAVRITANKNYRSKTSQEGALKKMHEEEHHQQMSILQLQLIQMNEVHVAKIQQIERECEMAEEEHRIKMEVLNKKKMYWERKLQTFTKEWPVSSFNRPFPNSP | soluble
10 | MEKEKSKTESLKKDEIDEANSESSKVPLAIDPEEAKLPNAGGKSEHMVVNFTSKRMAIKVRCGNALFRVEPTHMIIEPNKCRQLTINRMPGPIQKDKAIVQYLQIENDVQDPKTAFKAADSAGTKIPHLKIKLVAGASGGRQMSREVVDE | not soluble
11 | MGSDKIHHHHHHMRPTQKGDYLNPMSDLFQDYSEAAARSGAYDEMFAQGHVARRSYGQVSGALRELSLADVTARADSMARTFLDRGVTFDYAGEERPFPLDIVPRVIPADEWNVLERGVAQRVKALEAFLNDVYGRMAVVTDGVIPRQLVTTSAHFHRAVHGFEPSGGVRVHVSGIDVVRDAAGTFRVLEDNVRVPSGVSYVLENRRAMAKGLPEAFGQQHIRPVEEYPRRLLSALRKTAPAGVDDPTVVVLTPGVFNSAYFEHTLLAGLMGVELVEGRDLICRGNRVYMRTTAGEQRVDVIYKRIDDDFLDPLQFRSDSMLGCPGLVNAARAGGVTIANAVGNGVADDKLVYSYVPDLIRYYLHEEPIIANVDTFRLEEKEAREHVLDRLDELVVKPVDGSGGKGLVIGPDATKDELDALRKRVIADPRGWIAQPVLQLSTVPTLSGDKFGPRHVDLRPFAVNDGDDVWVLPGGLTRVALKEGSLIVNSSQGGGSKDTWVLADSPQLPAEIIPRQSVTVREQVSVWPVESNWRDRQTEQQQ | not soluble
12 | METKDLIVIGGGINGAGIAADAAGRGLSVLLLEAQDLACATSSASSKLIHGGLRYLEHYEFRLVSEALSERETLLKMAPHIIFPMRFRLPHQPHLRPAWMIRIGLFMYDNIGKRVSLPASKGLKFGADSVLKPELKQGFEYSDCWVDDARLVVLNAQEVAKRGGEVRTRTKVTRARREQGVWIVDAVDSLTGETFTWRAKGLVNATGPWVKEFFDDGLQLKSPYGIRLIKGSHIVVPRVHNQPQAYILQNKDHRIVFVIPWQDDYSIIGTTDVEYKGNPHDVKIDDNEVGYLLDVYNDHFKQQLTRDDIVWTYSGVRPLCDDESDSPQAITRDYTLSVDDDNGQAPLLSVFGGKLTTYRKLAEHALDKLHKYYPQAGKAWTKDAVLPGGDIAGTRDDYAAALRRRFNLPESLTRRYSRTYGSNSELILANVKGLSDLGEDFGHDLYEAELRYLVEKEWAVTLDDVIWRRTKLGMRFDDAQKQRISDWLVSYRQQQMAKAGLEHHHHHH | soluble
13 | MFQTFEGDLKWHHHNITYWIQNYSEDLPRAVIDDAFARAFALWSAVTPLTFTRVYSRDADIVIQFGVAEHGDGYPFDGKDGLLAHAFPPGPGIQGDAHFDDDELWSLGKGQGYSLFLVAAHEFGHALGLDHSSVPEALMYPMYRFTEGPPLHKDDVNGIRHLY | soluble
14 | MPRSSLRLLAKPLLESRRGFCTSSDKIVASVLFERLRVVIPKPDPAVYAFQEFKFNWQQQFRRRYPDEFLDIAKNRAKGEYQMDYVPAPRITEADKNNDRKSLYRALDKKLYLLIFGKPFGATSDKPVWHFPEKVYDSEPTLRKCAESALKSVVGDLTHTYFVGNAPMAHMAIQPTEEMPDLPSYKRFFFKCSVVAASKYDISNCEDFVWVTKDELLEFFPEQAEFFNKMIIS | soluble
15 | MGRINELRMISRVAQMYFSEHKRQAEIAQHLNLSQATVSRMLKRAEAEGIVRTSIIPPPGTYSDLEAQLRERFDLPEAIVVDCSEDRDGAIMARIGEAAAHFLEVTLSQNEIIGVSSWSQTIFKMVENIHPLKGAKARYIVQTLGGMGDPSVQTHATQITTRLARLTEAEPKLLPVPGVATSREAKLLMLADPFVRETIDLFGSITLAIVGVGAVEPSELLARSGNIFSTKELADLAQAGAVGDISLRFFDKDGKPVKTPLDDRVIGLPLENLSNVDRVIALAGGLKKTEAIAGALRTGVIDVLVTDKFTAERLVGQET | soluble
16 | MTENNKLQTIEQQLVQEKNVSDNVLNKVRVLESQGNLELPNDYSPSNAMKQAWLQISQDNKLMSCNDTSKANALLDMVTQGLNPAKNQCYFIPYGNKMQLQRSYHGNVMMLKRDAGAQDVVAQVIYKGDTFKQEMGETGRIKAIKHEQDFFNIDKENIIGAYCTIVFNDGRDNYIEVMTIEQIKQAWMQSSMIKDEKALQNSKTHNNFKEEMAKKTVINRAAKRYINTSTDSNLFKYAQESEQRQRKEVLDAEVEENANQEQLDFEQPVLEEAQYTELENDKPIDVSDFEEIKEPATEKESEEEPF | not soluble
17 | MTSNDSSENLRNRLAEKMAGDITLSEKPGESLKKWRLNFEISQTDIANYLKVSPSVISDYESGRRKSPGTLIVRKIVESLLEIDLERGGKKIHTYETMLNAESGSKSIYSTYEYTLPIQLAKLVNLIEGDIVYKGIEKPLYGFSVVDSQRAILELSSHEFQKLYGWSTDRAMIFTKVSTGKSPLVAIRVTNLKPGAVVLHGLRKEEVESVAVKMAEVDRVPLVATTMDLDQIVQLLKKYSQYYARE | not soluble
18 | MLIFGFIGLFFLNIFSLHAQGIVTNKDAQEEFKWALNSYNNGIYDDALLSFKKILSFDPNNLDYHFWTGNVYYRLGYVEEALMEWRNLKDQGYKVPYLRHLISTIEQRRGIFSNYELNFKKLVKVASLDNSIYKRPHGYQITSLRADKYGGYYAANFVGNEILYFDVNNNVNALVKDGFSYLKSPYDVIEANNLLYVTLYSSDEIGVYDKVLGVKRKSIGNKGTKDGELLAPQYMAIDKRNYIYVSEWGNKRVSKFGLEGDFILHFGSRTSGYKGLLGPTGVTYLNENIYVADSLRNTIEVFDTSGNHLYSVFTSIEGIEGLSSDFVGNNVIVSSKDGVYKYSIAKKTITKILKADKMNSKISSSILDANNQMIVSDFNNAKVSVYKSDASLYDSLNVDVRRIIRLGGPKIYVELNVSSKSGLPVVGLKSENFSISNENYYIVNPKVAYNVNASKDINIAVVFDKSSYMKKYDTDQIVGLNALMELSKNKNFSFINATSVPIIDNIESLTNSIRNTSSLGPYSTDAVKTDVSLKLAGSGLMSKSSRRAVVYFSGGILNRKAFEKYSLDTIVSYYKNNDIRFYLILFGNDPINSKLQYLVNETGGAVIPFSSYEGVSKVYDLILEQKTGTYLLEYYYPGPQEPNKYFNLSVEANINQQTGRGEFAYFINLEHHHHHH | not soluble
19 | MSLYRLLIVEDEHLIRKWLRYAIDYQSLNILVVGEAKDGKEGAQLIQEEQPDIVLSDINMPIMTAFDMFEATKGQSYAKIILSGYADFPNAQSAIHYGVLEFLTKPLEKQALIDCLKTIMARIEEHKEKHLQEHTELYLPLPQANDQVPEVIKDMLAWIHSHFHGKIVISQLAHDLGYSESYLYTVTKKHLHITLSDYINQYRINQAIQLMFREPDLMVYQIAEAVGIYDYRYFDRVFKKYLGQTVKAFKEEHIFKQMDEGHHHHHH | soluble
20 | MRVKHFELLTDEGKTFTHVDLYGKYTILFFFPKAGTSGCTREAVEFSRENFEKAQVVGISRDSVEALKRFKEKNDLKVTLLSDPEGILHEFFNVLENGKTVRSTFLIDRWGFVRKEWRRVKVEGHVQEVKEALDRLIEEDLSLNKHIEWRRARRALKKDRVPREELELLIKAAHLAPSCMNNQPWRFVVVDEEELLKKIHEALPGGNYWMKNAPALIAVHSKKDFDCALPDNRDYFLFDTGLAVGNLLVQATQMGLVAHPVAGYDPVKVKEILKIPEDHVLITLIAVGYLGDESELSEKHRELERSERVRKELSEIVRWNL | soluble
21 | MGSDKIHHHHHHMAQLVAIDNKNHLNLKVDAAKAELHGAGLHLVPAVMAEFTSMAVQYPLVITKNADTGQFVVAAMLGFESGENLFWRGGQWQGLYLPLQIRRQPFFVGNPEQNSEQKVAGDYVVCFDSESPAIVSNDGQALFSEDGVDTEYFQQAKYCLAQLLEGELANKKLLEQLQSMELLQVMQMEVTFANQQSTTLNGLYTIDTEKLAALSAEKIASLHKAGLLQAIYTLITSLGQIHHLIDLKNKQLGC | not soluble
